Results reported in patent US12187807B2, “Antibody molecules to C5AR1 and uses thereof” (Visterra, Inc., priority 2020, dated 2025).

Columns and labels:
[1] = biological target: T1, human C5aR1 transiently expressed on the surface of Expi293 cells (Homo sapiens, UniProt P21730, K279N); experiment: Cell surface binding (flow cytometry), Expi293 cells transiently expressing human C5aR1; conditions: staining with 100 nM of antibody
T1 construct: expressed in transfected cells; host or cells: Expi293 cells, transient
T1 sequence (P21730 with tags, fused parts or gaps K279N limits assumed): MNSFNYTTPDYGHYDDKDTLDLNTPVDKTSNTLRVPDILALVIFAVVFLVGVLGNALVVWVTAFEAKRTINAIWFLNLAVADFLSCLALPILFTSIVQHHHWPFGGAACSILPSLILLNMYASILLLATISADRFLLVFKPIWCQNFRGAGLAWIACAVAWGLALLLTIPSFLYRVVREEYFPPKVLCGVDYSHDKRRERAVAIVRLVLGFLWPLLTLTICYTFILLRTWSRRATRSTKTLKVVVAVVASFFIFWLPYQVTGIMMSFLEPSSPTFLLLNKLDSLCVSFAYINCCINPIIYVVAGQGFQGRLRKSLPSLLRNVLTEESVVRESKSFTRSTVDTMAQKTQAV
Procedure: (§1) Follow up screening to ensure specificity was performed by measuring cell surface binding to cells expressing, for example, human C5aR1, human C5aR2, mouse C5aR1, and control cells that were mock transfected. Briefly, cell surface binding was performed on various C5aR1 expressing cell lines (transiently expressed Expi293 cells, stable C5aR1-U937 cells, and neutrophils isolated from whole blood). Briefly, a titration of antibody diluted in flow buffer (1×PBS with 2% fetal bovine serum) was incubated with cells for 1 hour at 4° C. Cells were washed twice with flow buffer. Anti-human-APC secondary antibody was diluted 1:400 in flow buffer and incubated with cells for 30 minutes. Cells were washed twice with flow buffer and resuspended in 100 μL of flow buffer. Fluorescence was measured using the iQue Screen Plus flow cytometer.

[2] = tested on: control cells that were mock transfected; experiment: Cell surface binding (flow cytometry), mock transfected Expi293 control cells; conditions: staining with 100 nM of antibody
Procedure: as §1

[3] = biological target: T2, biotinylated peptide representing the N-terminus of C5aR1 without tyrosine sulfation (Homo sapiens, UniProt P21730); experiment: Epitope mapping by biolayer interferometry, N-terminus without tyrosine sulfation; format: binding; parameters: key: “+” indicates binding to the listed peptide; “−” indicates lack of binding to the listed peptide; conditions: 10 μg/mL of antibody, biotinylated peptide on streptavidin biosensor
T2 construct: the N-terminus without tyrosine sulfation
T2 sequence (P21730 1-37 limits assumed): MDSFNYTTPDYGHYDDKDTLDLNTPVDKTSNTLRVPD
Procedure: (§2) The epitope mapping was undertaken, using biolayer interferometry, on a series of exemplary anti-C5aR1 antibodies generated as described in Example 1. Briefly, for each antibody, biotinylated peptides representing ECL2, the N-terminus with tyrosine sulfation, and the N-terminus without tyrosine sulfation, were immobilized in a streptavidin biosensor. Subsequently, the biosensor was exposed to 10 μg/mL of antibody to detect antibody binding to the immobilized peptide. The results of the epitope mapping study are shown in Table 4 (“+” indicates binding to the listed peptide; “−” indicates lack of binding to the listed peptide).

[4] = biological target: T3, biotinylated peptide representing ECL2 of C5aR1 (Homo sapiens, UniProt P21730); experiment: Epitope mapping by biolayer interferometry, ECL2 peptide; format: binding; parameters: key: “+” indicates binding to the listed peptide; “−” indicates lack of binding to the listed peptide; conditions: biolayer interferometry, 10 μg/mL of antibody, biotinylated peptide on streptavidin biosensor
T3 construct: cyclic ECL2 peptide spanning from residues R175 to C188
Procedure: as §2

[5] = biological target: T4, biotinylated peptide representing the N-terminus of C5aR1 with tyrosine sulfation (Homo sapiens, UniProt P21730); experiment: Epitope mapping by biolayer interferometry, N-terminus with tyrosine sulfation; format: binding; parameters: key: “+” indicates binding to the listed peptide; “−” indicates lack of binding to the listed peptide; conditions: 10 μg/mL of antibody, biotinylated peptide on streptavidin biosensor
T4 construct: the N-terminus with tyrosine sulfation
T4 sequence (P21730 1-37): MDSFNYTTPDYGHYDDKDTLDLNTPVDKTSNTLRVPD
Procedure: as §2

B1: Clone_317v2-1 (antibody, V domains shown)
VH: QVQLQQPGAELVMPGASVKLSCKASGYTFTSYWMHWVKQRPGQGLEWIGEIDPSDSYTNYNQKFKGKATLTVDKSSSTAYMQLSSLTSEDSAVYYCARVAYYSNFGGFAYWGQGTTVTVSS
VL: DIVMTQSPSSLSVSAGEKVTMSCKSSQSLLKSGNQKNYLAWHQQKPGQPPKLLIYGASTRESGVPDRFTGSGSGTDFTLTISSVQAEDLAVYYCQNDHSHPYTFGGGTKLEIK
Cell surface binding, Human C5aR1, geometric mean fluorescent intensity [1]: 8,106 | Cell surface binding, Mock transfection, geometric mean fluorescent intensity [2]: 4,535 Clone_507

B2: Clone_336_v2-1 (antibody, V domains shown)
VH: QVQLKQSGPGLVQSSQSLSITCTVSGFSLISYGVHWVRQSPGKGLEWLGVIWSGGSTDYNAAFKSRLSITKDNSKSQVFFKMNSLQADDTAIYYCAKNSQLGNAMDYWGQGTTVTVSS
VL: DIVMSQSPSSLAVSAGEKVTMSCKSSQSLLSSRTRKNYLAWYQQKPGQSPKLLIYWASTRESGVPDRFTGSGSGTDFTLTISSVQAEDLALYFCNQSYDLLTFGAGTKLEIK
Cell surface binding, Human C5aR1, geometric mean fluorescent intensity [1]: 223,156 | Cell surface binding, Mock transfection, geometric mean fluorescent intensity [2]: 5,007 Clone_511v2

B3: clone 336v2-1: exemplary anti-C5aR1 antibody, Table 1C (antibody, V domains shown)
VH: QVQLKQSGPGLVQSSQSLSITCTVSGFSLISYGVHWVRQSPGKGLEWLGVIWSGGSTDYNAAFKSRLSITKDNSKSQVFFKMNSLQADDTAIYYCAKNSQLGNAMDYWGQGTTVTVSS
VL: DIVMSQSPSSLAVSAGEKVTMSCKSSQSLLSSRTRKNYLAWYQQKPGQSPKLLIYWASTRESGVPDRFTGSGSGTDFTLTISSVQAEDLALYFCNQSYDLLTFGAGTKLEIK
Binding to Non-sulfated N-terminal peptide [3]: − | Binding to Cyclic ECL2 peptide [4]: + | Binding to Sulfated N-terminal peptide [5]: −
